Test results taken from patent US20250304677A1 (VIB VZW, published 2025).
Numbering of substitutions follows the chain as printed. Numbers in names are those of the source. Where “and” joins values, the source holds several entries; their conditions need not be identical. Equal entries are not always repeated. Each block holds one binder with its values, some of them ahead of it.

How the values were obtained:
[1] = target: T1, mouse folate receptor alpha (mFRα), recombinant protein (mouse, UniProt P35846 25-232); assay: BLI
T1 construct: Bought recombinant proteins (e.g. biotinylated, Acro Biosystems FO1-M82E9); also called mFOLR1; Ms FOLR1
Procedure, shortened: (§1)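 Biotinylated human and mouse folate receptor alpha were immobilised on streptavidin biosensors, and off-rates were read by biolayer interferometry, with a 1:1 binding model applied in the calculation. Each variant's koff is expressed as a signed fold change relative to its wild-type VHH, positive as wild-type over variant for a better off-rate and negative as variant over wild-type for a worse one.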

[2] = target: T2, human folate receptor alpha (hFRα), recombinant protein (human, UniProt P15328 25-233); assay: BLI
T2 construct: Bought recombinant proteins (His-tagged, or biotinylated via Avi-tag, e.g. AcroBiosystems FO1-H82E2, F01-H52H1); also called hFOLR1; huFOLR1
Procedure, shortened: as §1

[3] = target: T3, human folate receptor alpha expressed on cells (transfected HEK293T, HeLa, MCF7, MDA-MB-231) (human, UniProt P15328 25-234); assay: flow cytometry on HeLa cells, anti-Flag detection
T3 construct: HEK293T transiently transfected with human FOLR1; also called native human FRα; cell-expressed human FOLR1
Experimental: EC₅₀ values are found in Table 9. Detection of VHH cell binding was done through anti-Flag M2 mIgG1 followed by anti-mFc-PE in flow cytometry. Results are depicted as mean fluorescence intensity ^{∘}MFI).
(§2) Off-rates of purified variants were determined to human, mouse, and cynomolgus FRα in BLI. In addition, binding of the affinity optimised variants to cell-expressed human FRα on HeLa cells was determined by flow cytometry ^{∘}FIG. 10 B).

[4] = target: T1, mouse folate receptor alpha (mFRα), …; assay: BLI, Avi-biotinylated FRα
Experimental: (§3) Purified VHHs ^{∘}100 nM) were analysed for binding to avi-tagged biotinylated FRα protein captured on streptavidin-biosensors via BLI.
as §2

[5] = target: T2, human folate receptor alpha (hFRα), …; assay: BLI, Avi-biotinylated FRα
Experimental: as §3, §2

[6] = target: T4, cynomolgus folate receptor alpha, recombinant (cynomolgus, UniProt A0A2K5U044 25-233); assay: BLI, purified VHH
T4 construct: also called cyFOLR1; cynomolgus FRα
Procedure, shortened: (§4)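 Affinity-optimised VHH variants were produced as flag3-His6-tagged proteins in TG-1 E. coli at 0.5 L scale. They were purified from the periplasmic fraction on Ni Sepharose FastFlow columns, desalted, and checked for purity by SDS-PAGE. Off-rates to human, mouse and cynomolgus folate receptor alpha were then determined by biolayer interferometry.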

[7] = target: T1, mouse folate receptor alpha (mFRα), …; assay: BLI, purified VHH
Procedure, shortened: as §4

[8] = target: T2, human folate receptor alpha (hFRα), …; assay: BLI, purified VHH
Procedure, shortened: as §4

T2 sequence (P15328 25-233 limits assumed): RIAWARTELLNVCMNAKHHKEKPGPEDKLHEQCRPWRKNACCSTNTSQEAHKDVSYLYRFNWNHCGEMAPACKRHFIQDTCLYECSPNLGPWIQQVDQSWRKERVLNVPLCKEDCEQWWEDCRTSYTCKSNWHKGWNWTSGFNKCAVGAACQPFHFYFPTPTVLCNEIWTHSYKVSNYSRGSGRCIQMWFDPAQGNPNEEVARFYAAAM
T3 sequence (P15328 25-234 limits assumed): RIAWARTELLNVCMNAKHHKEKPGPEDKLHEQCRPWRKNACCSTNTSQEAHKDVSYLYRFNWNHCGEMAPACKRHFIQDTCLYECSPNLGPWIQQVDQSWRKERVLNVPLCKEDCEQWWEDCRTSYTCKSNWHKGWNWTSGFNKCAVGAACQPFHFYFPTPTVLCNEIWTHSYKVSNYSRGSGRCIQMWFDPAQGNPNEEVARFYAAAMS
T1 sequence (P35846 25-232 limits assumed): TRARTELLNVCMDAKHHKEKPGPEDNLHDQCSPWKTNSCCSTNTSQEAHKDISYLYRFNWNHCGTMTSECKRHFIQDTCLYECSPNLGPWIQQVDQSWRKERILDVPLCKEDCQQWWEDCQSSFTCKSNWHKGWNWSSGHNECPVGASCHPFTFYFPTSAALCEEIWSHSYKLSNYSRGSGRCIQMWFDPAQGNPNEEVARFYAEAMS
T4 sequence (A0A2K5U044 entry or part of it): as the sequence (P15328 25-233 limits assumed) above, with I2T, W4R, R37K, A146P, H171Y counted along it

koff [1]: 0.00649 s⁻¹ | nm (Fold wt) [1]: 4 | koff [2]: 0.0336 s⁻¹ | nm (Fold wt) [2]: 2.5
B1: P01500084: P0150001 with A24V, S27T, M32I, N76D (VHH)
VHH: EVQLVESGGGLVQPGGSLRLSCAVSGTGFSGIIMGWYRQAPGKQRELVATVTSHGTTNYADSVKGRFTISRDNAKDTVYLQMNSLRPEDTAVYYCNAHFPGIYWGKGTLVTVSS

koff [1]: 0.0035 s⁻¹ | nm (Fold wt) [1]: 2.1 | koff [2]: 0.024 s⁻¹ | nm (Fold wt) [2]: 1.8
B2: P01500086: P0150001 with A24L, S27A, M32P (VHH)
VHH: B1 VHH with V24L, T27A, I32P, D76N

EC50 [3]: 3.61 nM | MFI top [3]: 62500 MFI | koff [4]: 0.000168 s⁻¹ | koff [5]: 0.00128 s⁻¹ | koff [6]: 0.00109 s⁻¹ | koff [7]: 0.000168 s⁻¹ | koff [8]: 0.00105 s⁻¹
B3: P01500050: P01500001(G28T, D72P)-FLAG3-HIS6 (VHH)
VHH: B1 VHH with V24A, T27S, G28T, I32M, D72P, D76N
notes: also called P0150050

koff [1]: 0.0975 s⁻¹ | nm (Fold wt) [1]: 60
B4: P01500083: P0150001 with A24V, S27L, M32I, N76D (VHH)
VHH: B1 VHH with T27L

koff [1]: 0.00241 s⁻¹ | nm (Fold wt) [1]: 1.5 | koff [2]: 0.0255 s⁻¹ | nm (Fold wt) [2]: 2
B5: P01500014: P0150001 with M32P (VHH)
VHH: B1 VHH with V24A, T27S, I32P, D76N
notes: Entry carries a His6 tag

koff [4]: 8.33e-05 s⁻¹ | koff [5]: 0.000206 s⁻¹
B6: P01500019: 2HF09(Q1E, Q5V, A14P, G26E, G28P, I51V, G54H, D72E, N73G, L79Y, K83R, Q108L)-HIS6 (VHH)
VHH: B1 VHH with V24A, G26E, T27S, G28P, I32M, D72E, N73G, D76N
notes: Entry includes the tag; also called P0150019; P01500001[G26E, G28P, D72E, N73G]

EC50 [3]: 2.52 nM | MFI top [3]: 55300 MFI | koff [4]: 3.38e-05 s⁻¹ | koff [5]: 0.000295 s⁻¹ | koff [6]: 0.00034 s⁻¹ | koff [7]: 3.38e-05 s⁻¹ | koff [8]: 0.000265 s⁻¹
B7: P01500056: P01500001(I33L, D72P, N73G)-FLAG3-HIS6 (VHH)
VHH: B1 VHH with V24A, T27S, I32M, I33L, D72P, N73G, D76N
notes: also called P0150056

EC50 [3]: 2.46 nM | MFI top [3]: 59800 MFI | koff [4]: 0.000142 s⁻¹ | koff [5]: 0.00147 s⁻¹ | koff [6]: 0.00133 s⁻¹ | koff [7]: 0.000142 s⁻¹ | koff [8]: 0.0013 s⁻¹
B8: P01500048: P01500001(S30I, D72P)-FLAG3-HIS6 (VHH)
VHH: B1 VHH with V24A, T27S, S30I, I32M, D72P, D76N
notes: also called P0150048

EC50 [3]: 2.4 nM | MFI top [3]: 60200 MFI | koff [4]: 0.000114 s⁻¹ | koff [5]: 0.000639 s⁻¹ | koff [6]: 0.000428 s⁻¹ | koff [7]: 0.000114 s⁻¹ | koff [8]: 0.000534 s⁻¹
B9: P01500043: P01500001(G28T, I33L, D72E)-FLAG3-HIS6 (VHH)
VHH: B1 VHH with V24A, T27S, G28T, I32M, I33L, D72E, D76N
notes: also called P0150043

EC50 [3]: 2.63 nM | MFI top [3]: 51200 MFI | koff [4]: 0.000167 s⁻¹ and 0.000214 s⁻¹ | koff [5]: 0.000922 s⁻¹ and 0.00105 s⁻¹ | koff [6]: 0.000167 s⁻¹ | koff [7]: 0.000191 s⁻¹ | koff [8]: 0.000943 s⁻¹
B10: P01500053: P01500001(S30I, I33L, N73P)-FLAG3-HIS6 (VHH)
VHH: B1 VHH with V24A, T27S, S30I, I32M, I33L, N73P, D76N
notes: also called P0150053

EC50 [3]: 3.77 nM | MFI top [3]: 59000 MFI | koff [4]: 2.4e-05 s⁻¹ | koff [5]: 0.000382 s⁻¹ | koff [6]: 4.24e-05 s⁻¹ | koff [7]: 2.4e-05 s⁻¹ | koff [8]: 0.000382 s⁻¹
B11: P01500055: P01500001(V51R, D72E, N73G)-FLAG3-HIS6 (VHH)
VHH: B1 VHH with V24A, T27S, I32M, V51R, D72E, N73G, D76N
notes: also called P0150055

koff [4]: 0.000484 s⁻¹ | koff [5]: 0.00285 s⁻¹ | koff [6]: 0.00369 s⁻¹ | koff [7]: 0.000484 s⁻¹ | koff [8]: 0.00318 s⁻¹
B12: P01500058: P01500001(G26E, G28P)-FLAG3-HIS6 (VHH)
VHH: B1 VHH with V24A, G26E, T27S, G28P, I32M, D76N
notes: also called P0150058

EC50 [3]: 5.19 nM | MFI top [3]: 54700 MFI | koff [4]: 0.00038 s⁻¹ | koff [5]: 0.00338 s⁻¹ | koff [6]: 0.00038 s⁻¹ | koff [7]: 0.00038 s⁻¹ | koff [8]: 0.00274 s⁻¹
B13: P01500042: P01500001(G28T, S30I)-FLAG3-HIS6 (VHH)
VHH: B1 VHH with V24A, T27S, G28T, S30I, I32M, D76N
notes: also called P0150042

EC50 [3]: 2.56 nM | MFI top [3]: 53800 MFI | koff [4]: 2.11e-05 s⁻¹ | koff [5]: 0.000316 s⁻¹ | koff [6]: 0.000234 s⁻¹ | koff [7]: 2.11e-05 s⁻¹ | koff [8]: 0.000307 s⁻¹
B14: P01500057: P01500001(G26E, G28P, D72E, N73G)-FLAG3-HIS6 (VHH)
VHH: B1 VHH with V24A, G26E, T27S, G28P, I32M, D72E, N73G, D76N
notes: also called P0150057

EC50 [3]: 3.29 nM | MFI top [3]: 64100 MFI | koff [4]: 0.000126 s⁻¹ | koff [5]: 0.000555 s⁻¹ | koff [6]: 0.000737 s⁻¹ | koff [7]: 0.000126 s⁻¹ | koff [8]: 0.000464 s⁻¹
B15: P01500044: P01500001(S30I, D72E, N73G)-FLAG3-HIS6 (VHH)
VHH: B1 VHH with V24A, T27S, S30I, I32M, D72E, N73G, D76N
notes: also called P0150044
